Measured values reported in US20220041746A1 (Sanofi, published 2022).
Where “and” joins values, the source holds several entries; their conditions need not be identical. Identical values can stand only once.

Experiments:
[1] = biological target: T1, recombinant human CD38 (SPR of Example 4) (human, UniProt P28907 45-300, limits assumed); experiment: SPR; KD rounded to an integer; second value of the pair, taken for CD3low
Experimental: (§1) Surface regenerate was conducted by injecting 10 mM Glycine-HCl pH 2.5 for 60 sec at 30 μl/min. […] Equilibrium dissociation constant (KD) was calculated using association rate constant (kₒₙ) and dissociation rate constant (koff).

[2] = biological target: human CD28 (SPR of Example 4) (human, UniProt P10747 19-152, limits assumed); experiment: as above
Experimental: as §1

[3] = biological target: T1, recombinant human CD38 (SPR of Example …); experiment: SPR (column 'KD value against rec. protein by SPR (nM)'); second value of the pair, taken for CD3low
[4] = biological target: T2, human CD3 (Cambridge Biologics LLC Cat #03-01-0051) (human, UniProt P07766 23-126; P09693 23-116); experiment: ELISA on coated hCD3 γε IgG4; the arrow ends on the second curve from the right, which carries the small markers
T2 construct: the reagent may hold further CD3 chains
Experimental: (§2) The binding properties of the purified antibodies were analyzed either using ELISA or SPR methods. For ELISA, corresponding antigens for each binding site in the trispecific binding protein were used to coat a 96-well Immuno Plate (Nunc 439454, Thermo Fisher Scientific) overnight at 4° C. using 2 μg/ml each antigen m PBS(pH7.4). The coated plate was blocked using 5% skim milk 12% BSA in PBS for one hour at RT, followed by washing with PBS+[…] three times (Aqua Max 400, Molecular Devices). Serial dilution of antibodies (trispecific and control Abs) were prepared and added onto the ELISA plates (100 μl/well in duplicate), incubated at RT for one hour, followed by washing 5 times with PBS+0.25% Tween 20.
(§3) The reaction was terminated by adding 50 μl 1M H₂SO₄, and OD₄₅₀ was measured using SpectraMax M5 (Molecular Devices) and analyzed using SoltMax Pro6.3 software (Molecular Devices). The final data was transferred to GraphPad Prism software (GraphPad Software, CA. USA), and plotted as shown. EC50 was calculated using the same software.

[5] = biological target: human CD38 (Cambridge Biologics LLC Cat #03-01-0369) (human, UniProt P28907 43-300); experiment: ELISA on coated hCD38-His
Experimental: as §2, §3

[6] = biological target: T3, human CD38 expressed on the cell surface (human, UniProt P28907 1-300); experiment: flow cytometry on 300.19 huCD38 cells (PréB hCD38)
T3 construct: whole, on cells; also called hCD38-expressing cells; huCD38
Experimental: (§4) The recombinant cell line was described by J. Deckket et al. 2014 Clin. Cancer Res 20:4574-4583. […] Antibody binding was evaluated after centrifugation and resuspension of cells by adding 200 μl/well PBS 1% BSA and read using Guava® easyCyte™ 8HT Flow Cytometry System. Apparent KD and EC50 values were estimated using BIOST®T-BINDING and BIOST®T-SPEED software, respectively.

[7] = biological target: T4, cynomolgus monkey CD38 expressed on the cell surface (cynomolgus monkey, UniProt Q5VAN0 1-301); experiment: flow cytometry on 300.19 cynoCD38 cells (PréB cCD38)
T4 construct: whole, on cells; also called cCD38-expressing cells
Experimental: as §4

[8] = biological target: T1, recombinant human CD38 (SPR of Example …); experiment: SPR; KD rounded to an integer; first value of the pair, taken for CD3mid
[9] = biological target: T1, recombinant human CD38 (SPR of Example …); experiment: SPR (column 'KD value against rec. protein by SPR (nM)'); first value of the pair, taken for CD3mid
[10] = biological target: T3, human CD38 expressed on the cell surface; experiment: flow cytometry, 'Apparent KD value against rec. cells by FACS (nM)'; single value of the mid/low row, equal to the EC50 of the CD3mid protein in FIG. 6B
Experimental: as §4

[11] = biological target: T2, human CD3 (Cambridge Biologics LLC Cat …); experiment: ELISA on coated hCD3 γε IgG4; the arrow ends on the rightmost curve, which carries the triangles
Experimental: as §2, §3

Row | Kd [1] [nM] | Kd [2] [nM] | Kd [3] [nM] | EC50 [4] [nM] | EC50 (read off the curve) [5] [nM] | EC50 [6] | EC50 [7] | Kd [8] [nM] | Kd [9] [nM] | Kd [10] [nM] | EC50 [11] [nM] | Binder
1 | 6 | 34 | 6 | 0.491 |  |  |  |  |  |  |  | CD38VH1×CD28cvn×CD3low IgG4 (other, also called CD38VH1×CD28evn×CD3low IgG4) VH 1: QVQLVQSGAEVVKPGASVKVSCKASGYTFTSYAMHWVKEAPGQRLEWIGYIYPGQGGTNYNQKFQGRATLTADTSASTAYMELSSLRSEDTAVYFCARTGGLRRAYFTYWGQGTLVTVSS VL 1: DIVLTQSPATLSLSPGERATISCRASQSVSSYGQGFMHWYQQKPGQPPRLLIYGASSRATGIPARFSGSGSGTDFTLTISPLEPEDFAVYYCQQNKEDPWTFGGGTKLEIK VH 2: QVQLQESGPGLVKPSQTLSLTCTVSGFSLSDYGVHWVRQPPGKGLEWLGVIWAGGGTNYNPSLKSRKTISKDTSKNQVSLKLSSVTAADTAVYYCARDKGYSYYYSMDYWGQGTTVTVSS VL 2: DIVLTQSPASLAVSPGQRATITCRASESVEYYVTSLMQWYQQKPGQPPKLLIFAASNVESGVPARFSGSGSGTDFTLTINPVEANDVANYYCQQSRKVPYTFGQGTKLEIK VH 3: QVQLVESGGGVVQPGRSLRLSCAASGFTFTKAWMHWVRQAPGKGLEWVAQIKDKSNSYATYYADSVKGRFTISRDNSKNTLYLQMNSLRAEDTAVYYCRGVYYALSPFDYWGQGTLVTVSS VL 3: DIVMTQTPLSLSVTPGQPASISCKSSQSLVHNNGNTYLSWYLQKPGQSPQLLIYKVSNRFSGVPDRFSGSGSGTDFTLKISRVEAEDVGVYYCGQGTQYPFTFGGGTKVEIK
2 |  |  |  |  | ~3 | 11 nM and 1.67 µg/mL | 17 nM and 2.53 µg/mL | 4 | 4 | 11 |  | CD38VH1×CD28sup×CD3mid IgG4 (other, also called anti-CD38(VH1)×CD28(sup)×CD3(mid)) VH 1: QVQLVQSGAEVVKPGASVKVSCKASGYTFTSYAMHWVKEAPGQRLEWIGYIYPGQGGTNYNQKFQGRATLTADTSASTAYMELSSLRSEDTAVYFCARTGGLRRAYFTYWGQGTLVTVSS VL 1: DIVLTQSPATLSLSPGERATISCRASQSVSSYGQGFMHWYQQKPGQPPRLLIYGASSRATGIPARFSGSGSGTDFTLTISPLEPEDFAVYYCQQNKEDPWTFGGGTKLEIK VH 2: QVQLVQSGAEVVKPGASVKVSCKASGYTFTSYYIHWVRQAPGQGLEWIGSIYPGNVNTNYAQKFQGRATLTVDTSISTAYMELSRLRSDDTAVYYCTRSHYGLDWNFDVWGKGTTVTVSS VL 2: DIQMTQSPSSLSASVGDRVTITCQASQNIYVWLNWYQQKPGKAPKLLIYKASNLHTGVPSRFSGSGSGTDFTLTISSLQPEDIATYYCQQGQTYPYTFGQGTKLEIK VH 3: QVQLVESGGGVVQPGRSLRLSCAASGFTFTKAWMHWVRQAPGKQLEWVAQIKDKSNSYATYYADSVKGRFTISRDDSKNTLYLQMNSLRAEDTAVYYCRGVYYALSPFDYWGQGTLVTVSS VL 3: DIVMTQTPLSLSVTPGQPASISCKSSQSLVHNNANTYLSWYLQKPGQSPQSLIYKVSNRFSGVPDRFSGSGSGTDFTLKISRVEAEDVGVYYCGQGTQYPFTFGSGTKVEIK
3 | 6 | 4 | 6 |  | ~6 |  |  |  |  |  | 1.04 | CD38VH1×CD28sup×CD3low IgG4 (other) VH 1: QVQLVQSGAEVVKPGASVKVSCKASGYTFTSYAMHWVKEAPGQRLEWIGYIYPGQGGTNYNQKFQGRATLTADTSASTAYMELSSLRSEDTAVYFCARTGGLRRAYFTYWGQGTLVTVSS VL 1: DIVLTQSPATLSLSPGERATISCRASQSVSSYGQGFMHWYQQKPGQPPRLLIYGASSRATGIPARFSGSGSGTDFTLTISPLEPEDFAVYYCQQNKEDPWTFGGGTKLEIK VH 2: QVQLVQSGAEVVKPGASVKVSCKASGYTFTSYYIHWVRQAPGQGLEWIGSIYPGNVNTNYAQKFQGRATLTVDTSISTAYMELSRLRSDDTAVYYCTRSHYGLDWNFDVWGKGTTVTVSS VL 2: DIQMTQSPSSLSASVGDRVTITCQASQNIYVWLNWYQQKPGKAPKLLIYKASNLHTGVPSRFSGSGSGTDFTLTISSLQPEDIATYYCQQGQTYPYTFGQGTKLEIK VH 3: QVQLVESGGGVVQPGRSLRLSCAASGFTFTKAWMHWVRQAPGKGLEWVAQIKDKSNSYATYYADSVKGRFTISRDNSKNTLYLQMNSLRAEDTAVYYCRGVYYALSPFDYWGQGTLVTVSS VL 3: DIVMTQTPLSLSVTPGQPASISCKSSQSLVHNNGNTYLSWYLQKPGQSPQLLIYKVSNRFSGVPDRFSGSGSGTDFTLKISRVEAEDVGVYYCGQGTQYPFTFGGGTKVEIK
